In article PMC12813973, “Consequences of Peptide Macrocyclization Revealed by Virus-Inspired β‑Hairpin Mimetics” (ACS Chemical Biology, 2025):
Read-outs that look alike come from different tables or passages of the source.

Tests used:
[1] = molecular target: T1, 018 minimal fragment (peptide 1) 11-30 (Vaccinia virus), P17356; test: ITC
[2] = molecular target: T1, 018 minimal fragment (peptide 1) 11-30 …; test: competition
[3] = molecular target: T1, 018 minimal fragment (peptide 1) 11-30 …

T1 sequence (P17356 11-30): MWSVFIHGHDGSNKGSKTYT

B1: STAT1, P42224 (protein)
chain: SQWYELQQLDSKFLEQVHQLYDDSFPMEIRQYLAQWLEKQDWEHAANDVSFATIRFHDLLSQLDDQYSRFSLENNFLLQHNIRKSKRNLQDNFQEDPIQMSMIIYSCLKEERKILENAQRFNQAQSGNIQSTVMLDKQKELDSKVRNVKDKVMCIEHEIKSLEDLQDEYDFKCKTLQNREHETNGVAKSDQKQEQLLLKKMYLMLDNKRKEVVHKIIELLNVTELTQNALINDELVEWKRRQQSACIGGPPNACLDQLQNWFTIVAESLQQVRQQLKKLEELEQKYTYEHDPITKNKQVLWDRTFSLFQQLIQSSFVVERQPCMPTHPQRPLVLKTGVQFTVKLRLLVKLQELNYNLKVKVLFDKDVNERNTVKGFRKFNILGTHTKVMNMEESTNGSLAAEFRHLQLKEQKNAGTRTNEGPLIVTEELHSLSFETQLCQPGLVIDLETTSLPVVVISNVSQLPSGWASILWYNMLVAEPRNLSFFLTPPCARWAQLSEVLSWQFSSVTKRGLNVDQLNMLGEKLLGPNASPDGLIPWTRFCKENINDKNFPFWLWIESILELIKKHLLPLWNDGCIMGFISKERERALLKDQQPGTFLLRFSESSREGAITFTWVERSQNGGEPDFHAVEPYTKKELSAVTFPDIIRNYKVMAAENIPENPLKYLYPNIDKDHAFGKYYSRPKEAPEPMELDGPKGTGYIKTELISVSEVHPSRLQTTDNLLPMSPEEFDEVSRIVGSVEFDSMMNTV
Kd [1]: 533 nM | IC50 [2]: 4300 nM | Kd [3]: 73 nM
